Data from US20200317768A1 (published 2020).

T1: cynomolgus monkey FcγRIIa1 extracellular domain with C-terminal His-tag (cynomolgus monkey)
T1 construct: Expressed in FreeStyle 293 cells and purified; also called cyno FcγRIIa1; cynoFcgRIIa1; not shown: C-terminal His-tag
T1 chain: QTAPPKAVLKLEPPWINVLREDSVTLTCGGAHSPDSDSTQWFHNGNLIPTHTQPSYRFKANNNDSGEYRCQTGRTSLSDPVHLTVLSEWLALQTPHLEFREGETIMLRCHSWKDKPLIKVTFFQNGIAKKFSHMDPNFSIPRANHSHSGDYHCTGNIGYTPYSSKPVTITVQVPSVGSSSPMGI

T2: cynomolgus monkey FcγRIIa2 extracellular domain with C-terminal His-tag (cynomolgus monkey)
T2 construct: Expressed in FreeStyle 293 cells and purified; also called cyno FcγRIIa2; cynoFcgRIIa2; not shown: C-terminal His-tag
T2 chain: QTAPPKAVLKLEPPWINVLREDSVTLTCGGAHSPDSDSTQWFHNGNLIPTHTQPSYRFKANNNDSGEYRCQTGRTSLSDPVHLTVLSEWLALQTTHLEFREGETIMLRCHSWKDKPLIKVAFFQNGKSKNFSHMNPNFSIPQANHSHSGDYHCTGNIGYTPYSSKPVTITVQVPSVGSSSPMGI

T3: cynomolgus monkey FcγRIIa3 extracellular domain with C-terminal His-tag (cynomolgus monkey)
T3 construct: Expressed in FreeStyle 293 cells and purified; also called cyno FcγRIIa3; cynoFcgRIIa3; not shown: C-terminal His-tag
T3 chain: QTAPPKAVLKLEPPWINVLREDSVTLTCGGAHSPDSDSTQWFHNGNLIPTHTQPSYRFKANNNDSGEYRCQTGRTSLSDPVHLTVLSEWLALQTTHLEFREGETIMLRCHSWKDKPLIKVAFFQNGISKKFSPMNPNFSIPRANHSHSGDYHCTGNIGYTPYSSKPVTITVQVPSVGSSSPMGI

T4: cynomolgus monkey FcγRIIb extracellular domain with C-terminal His-tag (cynomolgus monkey)
T4 construct: Expressed in FreeStyle 293 cells and purified; also called cyno FcγRIIb; cynoFcγRIIb; not shown: C-terminal His-tag
T4 chain: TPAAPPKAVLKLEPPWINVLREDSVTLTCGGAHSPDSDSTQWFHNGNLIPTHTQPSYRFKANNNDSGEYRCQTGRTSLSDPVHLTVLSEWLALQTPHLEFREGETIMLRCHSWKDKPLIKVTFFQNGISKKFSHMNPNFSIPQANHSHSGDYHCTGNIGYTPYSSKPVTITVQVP

T5: cynomolgus monkey FcγRIIIaS extracellular domain with C-terminal His-tag (cynomolgus monkey, UniProt Q8SPW2 21-206 at identity 1.00))
T5 construct: Expressed in FreeStyle 293 cells and purified; also called cyno FcγRIIIaS; cynoFcγRIIIaS; not shown: C-terminal His-tag
T5 chain: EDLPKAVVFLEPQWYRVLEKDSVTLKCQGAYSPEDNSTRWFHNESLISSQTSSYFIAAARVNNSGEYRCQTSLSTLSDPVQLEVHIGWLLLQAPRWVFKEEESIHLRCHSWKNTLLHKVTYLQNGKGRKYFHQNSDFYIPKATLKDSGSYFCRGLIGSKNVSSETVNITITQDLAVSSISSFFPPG

T6: human FcγRIIaH extracellular domain with C-terminal His-tag (human, UniProt P12318 34-217)
T6 construct: Expressed in FreeStyle 293 cells and purified; also called human FcγRIIa (type H); FcgRIIaH; not shown: C-terminal His-tag
T6 sequence: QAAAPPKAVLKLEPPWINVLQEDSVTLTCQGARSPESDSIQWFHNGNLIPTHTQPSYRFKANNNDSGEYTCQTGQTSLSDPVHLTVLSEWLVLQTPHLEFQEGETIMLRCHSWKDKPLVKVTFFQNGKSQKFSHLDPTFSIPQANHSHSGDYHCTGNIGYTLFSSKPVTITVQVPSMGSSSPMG

T7: human FcγRIIaR extracellular domain with C-terminal His-tag (human, UniProt P12318 34-217)
T7 construct: Expressed in FreeStyle 293 cells and purified; also called human FcγRIIa (type R); FcgRIIaR; not shown: C-terminal His-tag
T7 chain: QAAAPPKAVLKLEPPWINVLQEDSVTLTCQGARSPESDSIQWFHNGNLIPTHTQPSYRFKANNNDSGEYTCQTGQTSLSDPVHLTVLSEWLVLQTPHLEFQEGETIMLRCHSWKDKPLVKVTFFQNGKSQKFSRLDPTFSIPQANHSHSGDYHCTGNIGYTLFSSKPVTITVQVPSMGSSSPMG


What was measured:
Assay in all cases: SPR (Biacore), antibody captured on chip, FcgR extracellular domain as analyte, 25 C
[1] = biological target: T1, cynomolgus monkey FcγRIIa1 …
[2] = biological target: T2, cynomolgus monkey FcγRIIa2 …
[3] = biological target: T3, cynomolgus monkey FcγRIIa3 …
[4] = biological target: T4, cynomolgus monkey FcγRIIb extracellular …
[5] = biological target: T5, cynomolgus monkey FcγRIIIaS …
[6] = biological target: T6, human FcγRIIaH extracellular domain …
[7] = biological target: T7, human FcγRIIaR extracellular domain …
[8] = biological target: T8, human FcγRIIIaV extracellular domain with C-terminal His-tag (human, UniProt P08637 17-208)
T8 construct: Expressed in FreeStyle 293 cells and purified; also called FcgRIIIaV; not shown: C-terminal His-tag
T8 sequence (P08637 17-208 F176V): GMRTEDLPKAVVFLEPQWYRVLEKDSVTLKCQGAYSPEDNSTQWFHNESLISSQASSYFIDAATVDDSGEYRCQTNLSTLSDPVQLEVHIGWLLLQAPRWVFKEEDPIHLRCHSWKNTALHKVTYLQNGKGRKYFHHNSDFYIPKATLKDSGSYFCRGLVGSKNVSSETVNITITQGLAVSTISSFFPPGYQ

| Binder | Kd [1] [nM] | Kd [2] [nM] | Kd [3] [nM] | Kd [4] [nM] | Kd [5] [nM] | Kd [6] [nM] | Kd [7] [nM] | Kd [8] [nM] |
| --- | --- | --- | --- | --- | --- | --- | --- | --- |
| M103205H795-MY172 / M103202L889-SK1 (antibody, human IgG1, kappa, Position 396 variant derived from MY052, expressed with M103202L889-SK1 as light chain) heavy: QVTLKESGPVLVKPTETLTLTCTVSGIDLSHDDISWVRQAPGKGLEWVGIISYAGSTYYASWAKGRLTISKDTSKNQVVLTMTNMDPVDTATYYCARGVPAYSHGGDLWGQGTLVTVSSASTKGPSVFPLAPSSKSTSGGTAALGCLVKDYFPEPVTVSWNSGALTSGVHTFPAVLQSSGLYSLSSVVTVPSSSLGTQTYICNVNHKPSNTKVDKKVEPKSCDKTHTCPPCPAPELLNGPSVFLFPPKPKDTLMISRTPEVTCVVVDVSEEDPEVKFNWYVDGVEVHNAKTKPREEQYNSTYRVVSVLTVLHQDWLNGKEYKCKVSNKALPAPIEKTISKAKGQPREPQVYTLPPSREEMTKNQVSLTCLVKGFYPSDIAVEWESNGQPENNYKTTPGVLDSDGSFFLYSKLTVDKSRWQQGNVFSCSVMHEALHNHYTQKSLSLSP light: DIVMTQSPATLSLSPGERATLSCTSSQSVYHANWLSWFQQKPGQPPKLLIYWASTLAYGVPSRFSGSGSGTDFTLTISSLQPEDAATYYCAGGYGGGRYAFGQGTKVEIKRTVAAPSVFIFPPSDEQLKSGTASVVCLLNNFYPREAKVQWKVDNALQSGNSQESVTEQDSKDSTYSLSSTLTLSKADYEKHKVYACEVTHQGLSSPVTKSFNRGEC | 2700 | 2300 | 11000 | 1200 | 3300 | 17000 | 3100 | 6500 |
| M103205H795-MY173 / M103202L889-SK1 (antibody, human IgG1, kappa, Position 396 variant derived from MY052, expressed with M103202L889-SK1 as light chain) heavy: QVTLKESGPVLVKPTETLTLTCTVSGIDLSHDDISWVRQAPGKGLEWVGIISYAGSTYYASWAKGRLTISKDTSKNQVVLTMTNMDPVDTATYYCARGVPAYSHGGDLWGQGTLVTVSSASTKGPSVFPLAPSSKSTSGGTAALGCLVKDYFPEPVTVSWNSGALTSGVHTFPAVLQSSGLYSLSSVVTVPSSSLGTQTYICNVNHKPSNTKVDKKVEPKSCDKTHTCPPCPAPELLNGPSVFLFPPKPKDTLMISRTPEVTCVVVDVSEEDPEVKFNWYVDGVEVHNAKTKPREEQYNSTYRVVSVLTVLHQDWLNGKEYKCKVSNKALPAPIEKTISKAKGQPREPQVYTLPPSREEMTKNQVSLTCLVKGFYPSDIAVEWESNGQPENNYKTTPHVLDSDGSFFLYSKLTVDKSRWQQGNVFSCSVMHEALHNHYTQKSLSLSP light: DIVMTQSPATLSLSPGERATLSCTSSQSVYHANWLSWFQQKPGQPPKLLIYWASTLAYGVPSRFSGSGSGTDFTLTISSLQPEDAATYYCAGGYGGGRYAFGQGTKVEIKRTVAAPSVFIFPPSDEQLKSGTASVVCLLNNFYPREAKVQWKVDNALQSGNSQESVTEQDSKDSTYSLSSTLTLSKADYEKHKVYACEVTHQGLSSPVTKSFNRGEC | 1700 | 1800 | 3000 | 780 | 3100 | 1000 | 1900 | 7000 |
| M103205H795-MY176 / M103202L889-SK1 (antibody, human IgG1, kappa, Position 396 variant derived from MY052, expressed with M103202L889-SK1 as light chain) heavy: QVTLKESGPVLVKPTETLTLTCTVSGIDLSHDDISWVRQAPGKGLEWVGIISYAGSTYYASWAKGRLTISKDTSKNQVVLTMTNMDPVDTATYYCARGVPAYSHGGDLWGQGTLVTVSSASTKGPSVFPLAPSSKSTSGGTAALGCLVKDYFPEPVTVSWNSGALTSGVHTFPAVLQSSGLYSLSSVVTVPSSSLGTQTYICNVNHKPSNTKVDKKVEPKSCDKTHTCPPCPAPELLNGPSVFLFPPKPKDTLMISRTPEVTCVVVDVSEEDPEVKFNWYVDGVEVHNAKTKPREEQYNSTYRVVSVLTVLHQDWLNGKEYKCKVSNKALPAPIEKTISKAKGQPREPQVYTLPPSREEMTKNQVSLTCLVKGFYPSDIAVEWESNGQPENNYKTTPLVLDSDGSFFLYSKLTVDKSRWQQGNVFSCSVMHEALHNHYTQKSLSLSP light: DIVMTQSPATLSLSPGERATLSCTSSQSVYHANWLSWFQQKPGQPPKLLIYWASTLAYGVPSRFSGSGSGTDFTLTISSLQPEDAATYYCAGGYGGGRYAFGQGTKVEIKRTVAAPSVFIFPPSDEQLKSGTASVVCLLNNFYPREAKVQWKVDNALQSGNSQESVTEQDSKDSTYSLSSTLTLSKADYEKHKVYACEVTHQGLSSPVTKSFNRGEC | 1300 | 1400 | 5000 | 620 | 2700 | 700 | 1300 | 6700 |
| M103205H795-MY174 / M103202L889-SK1 (antibody, human IgG1, kappa, Position 396 variant derived from MY052, expressed with M103202L889-SK1 as light chain) heavy: QVTLKESGPVLVKPTETLTLTCTVSGIDLSHDDISWVRQAPGKGLEWVGIISYAGSTYYASWAKGRLTISKDTSKNQVVLTMTNMDPVDTATYYCARGVPAYSHGGDLWGQGTLVTVSSASTKGPSVFPLAPSSKSTSGGTAALGCLVKDYFPEPVTVSWNSGALTSGVHTFPAVLQSSGLYSLSSVVTVPSSSLGTQTYICNVNHKPSNTKVDKKVEPKSCDKTHTCPPCPAPELLNGPSVFLFPPKPKDTLMISRTPEVTCVVVDVSEEDPEVKFNWYVDGVEVHNAKTKPREEQYNSTYRVVSVLTVLHQDWLNGKEYKCKVSNKALPAPIEKTISKAKGQPREPQVYTLPPSREEMTKNQVSLTCLVKGFYPSDIAVEWESNGQPENNYKTTPIVLDSDGSFFLYSKLTVDKSRWQQGNVFSCSVMHEALHNHYTQKSLSLSP light: DIVMTQSPATLSLSPGERATLSCTSSQSVYHANWLSWFQQKPGQPPKLLIYWASTLAYGVPSRFSGSGSGTDFTLTISSLQPEDAATYYCAGGYGGGRYAFGQGTKVEIKRTVAAPSVFIFPPSDEQLKSGTASVVCLLNNFYPREAKVQWKVDNALQSGNSQESVTEQDSKDSTYSLSSTLTLSKADYEKHKVYACEVTHQGLSSPVTKSFNRGEC | 1500 | 1600 | 6400 | 650 | 2500 | 810 | 1400 | 6800 |
| M103205H795-MY175 / M103202L889-SK1 (antibody, human IgG1, kappa, Position 396 variant derived from MY052, expressed with M103202L889-SK1 as light chain) heavy: QVTLKESGPVLVKPTETLTLTCTVSGIDLSHDDISWVRQAPGKGLEWVGIISYAGSTYYASWAKGRLTISKDTSKNQVVLTMTNMDPVDTATYYCARGVPAYSHGGDLWGQGTLVTVSSASTKGPSVFPLAPSSKSTSGGTAALGCLVKDYFPEPVTVSWNSGALTSGVHTFPAVLQSSGLYSLSSVVTVPSSSLGTQTYICNVNHKPSNTKVDKKVEPKSCDKTHTCPPCPAPELLNGPSVFLFPPKPKDTLMISRTPEVTCVVVDVSEEDPEVKFNWYVDGVEVHNAKTKPREEQYNSTYRVVSVLTVLHQDWLNGKEYKCKVSNKALPAPIEKTISKAKGQPREPQVYTLPPSREEMTKNQVSLTCLVKGFYPSDIAVEWESNGQPENNYKTTPKVLDSDGSFFLYSKLTVDKSRWQQGNVFSCSVMHEALHNHYTQKSLSLSP light: DIVMTQSPATLSLSPGERATLSCTSSQSVYHANWLSWFQQKPGQPPKLLIYWASTLAYGVPSRFSGSGSGTDFTLTISSLQPEDAATYYCAGGYGGGRYAFGQGTKVEIKRTVAAPSVFIFPPSDEQLKSGTASVVCLLNNFYPREAKVQWKVDNALQSGNSQESVTEQDSKDSTYSLSSTLTLSKADYEKHKVYACEVTHQGLSSPVTKSFNRGEC | 1400 | 1500 | 7500 | 710 | 2600 | 860 | 1800 | 7600 |
